Experiment [1] deals with Human BTN3A, membrane displayed on cells (human PBMCs, Daudi cells, SKOV-3 cells) (human), O00481. The experiment is described as follows: cell-based or functional assay.
Experiment [2] has as its target T1, Human BTN3A1 His-tagged antigen (Sino Biological Cat. No. 15973-H08H) (human, UniProt O00481 30-254).
T1 construct: Bought recombinant protein; also called recombinant human BTN3A1-His; not shown: His tag
The experiment is described as follows: SPR Biacore T200, single cycle kinetics, BTN3A1-His captured on anti-His CM5 chip, Fab as analyte, 1:1 model, 25 C. On the procedure:
All single cycle kinetic experiments were run at 25° C. with HBS-P+ running buffer (pH 7.4) containing 0.1% BSA (GE Healthcare, Little Chalfont, UK).
Human BTN3A1 His-tagged antigen (Sino Biological, Beijing, China) was diluted in running buffer to a final concentration of 0.4 μg/mL. At the start of each cycle, BTN3A1-His was captured onto Fc2 of CM5 sensor chip pre-coupled using a His capture kit (GE Healthcare, Little Chalfont, UK) with standard amine chemistry at a flow rate of 10 μL/min. An immobilization level (RL) of ˜17 RU or 8 RU, the different theoretical values to obtain a RMax of ˜25 RU was used for the analytes Fab and F(ab′)₂ respectively. The surface was then allowed to stabilize. Single cycle kinetics data was obtained with the purified samples (Fab and F(ab′)₂)) at a flow rate of 40 μL/min to minimize any potential mass transfer effects. The signal from the reference channel Fc1 (no antigen capture) was subtracted from that of Fc2 to correct for differences in non-specific binding to the reference surface. […] The signal for BTN3A1-His blank runs (no analyte) were subtracted to correct for differences in surface stability. The association phase for the five injections of increasing concentrations was monitored for 240 seconds each time and a single dissociation phase was measured for 2000 seconds following the last injection of analyte. Regeneration of the chip surface was conducted using two injections of 10 mM glycine-HCL pH 1.5 followed by a stabilization period of 240 seconds.
Raw sensorgrams were fitted with a 1:1 model for Fab samples and with a bivalent analyte model for F(ab′)₂ samples in agreement with the different valences of the analytes. Kinetic constants obtained are detailed in Table 1 and Table 2.

Experiment [3] addresses T1, Human BTN3A1 His-tagged antigen (Sino …). The experiment is described as follows: BLI OctetRed96, antibody loaded on FAB2G (anti-human CH1) sensors, human BTN3A1 as analyte 1.87-60 nM, 1:1 model, 30 C. On the procedure: (§1) All runs (including loading, equilibration, association/dipping of sensors into analyte, dissociation and regeneration) were performed in black 96-well plates (Greiner) at 30° C. with shaking 1000 rpm using an OctetRed96 (ForteBio). […] The association of antibody or fragments with various concentrations of human BTN3A1 (60, 30, 15, 7.5, 3.75 and 1.87 nM) was monitored for 300 s, and the dissociation was followed for typically 500 s in kinetic buffer. Fitting of the data and constant measurements were performed with the Octet Red system software (version 7.1) using the 1:1 model. A control with an irrelevant antibody was used in order to assess the absence of non-specific binding of the target protein.

For experiment [4] the target is unchanged. The experiment is described as follows: SPR Biacore T200, single cycle kinetics, BTN3A1-His captured on anti-His CM5 chip, IgG as analyte, bivalent analyte model (ka 1), 25 C. On the procedure:
(§2) Human BTN3A1 His-tagged antigen (Sino Biological, Beijing, China) was diluted in running buffer to a final concentration of 0.4 μg/mL. At the start of each cycle, human BTN3A1-His was captured onto Fc2 of CM5 sensor chip pre-coupled using a His capture kit (GE Healthcare, Little Chalfont, UK) with standard amine chemistry at a flow rate of 10 μL/min. An immobilization level (RL) of ˜34 RU, 16 RU or 11 RU, the different theoretical values to obtain a RMax of ˜50 RU was used for the analytes Fab, F(ab′)₂ and IgG respectively. The surface was then allowed to stabilize. Single cycle kinetic data was obtained with the purified samples (Fab, F(ab′)₂ and IgG) at a flow rate of 40 μL/min to minimize any potential mass transfer effects. The signal from the reference channel Fc1 (no antigen capture) was subtracted from that of Fc2 to correct for differences in non-specific binding to the reference surface. The signal for human BTN3A1-His blank runs (no analyte) were subtracted to correct for differences in surface stability. The association phase for the five injections of increasing concentrations was monitored for 240 seconds each time and a single dissociation phase was measured for 1400 seconds following the last injection of analyte. Regeneration of the chip surface was conducted using two injections of 10 mM glycine-HCL pH 1.5 followed by a stabilization period of 240 seconds.

Experiment [5] has the same target. The experiment is described as follows: SPR Biacore T200, single cycle kinetics, BTN3A1-His captured on anti-His CM5 chip, IgG as analyte, bivalent analyte model (ka 2), 25 C. On the procedure: as §2
Experiment [6] shares this target. As to the kind of experiment: SPR Biacore T200, single cycle kinetics, BTN3A1-His captured on anti-His CM5 chip, IgG as analyte, bivalent analyte model (kd 1), 25 C. On the procedure: as §2
Experiment [7] shares this target. The experiment is described as follows: SPR Biacore T200, single cycle kinetics, BTN3A1-His captured on anti-His CM5 chip, IgG as analyte, bivalent analyte model (kd 2), 25 C. On the procedure:
as §2

Experiment [8] has the same target. As to the kind of experiment: BLI OctetRed96, Fab loaded on FAB2G (anti-human CH1) sensors, human BTN3A1 as analyte 1.87-60 nM, 1:1 model, 30 C. On the procedure:
as §1

Experiment [9] shares this target. As to the kind of experiment: SPR Biacore T200, single cycle kinetics, BTN3A1-His captured on anti-His CM5 chip, Fab as analyte, 1:1 model, 25 C. On the procedure: as §2
This is another data set of the same source.

Experiment [10] has the same target. The experiment is described as follows: competition ELISA on coated BTN3A1-His, competitor murine 103.2. On the procedure:
Chimeric (VH0/Vκ0) and irrelevant human IgG4 (S241P, L248E) were tested on each plate for comparison.
BTN3A1 was diluted in 1×PBS to 0.5 μg/ml and 100 μL/well was coated overnight at 4° C. on a 96-well ELISA plate. The following day, the plate was washed 3× with 1×PBS/0.05% Tween (PBS-T) and blocked with 200 μL of 2% milk/PBS for 1 hour at room temperature. […] After washing the Nunc ELISA plate 3× with PBS-T, 100 μL of murine/test antibody mix was added to the ELISA plate. After one hour incubation at room temperature, the plate was washed 3 times with PBS-T and 100 μL of anti-mouse Fc HRP-labelled secondary antibody (Sigma, Dorset, UK) diluted 1:1000 in blocking buffer was applied for 1 hour at room temperature to detect bound murine antibody. The plate was washed 3 times with PBS-T following which 100 μL of TMB substrate was added and incubated for five minutes at room temperature. The reaction was stopped with 100 μl of 3.0 M hydrochloric acid and absorbance was read immediately using a Dynex plate reader at 450 nm.

The target is the same in experiment [11]. As to the kind of experiment: SPR Biacore T200, multi-cycle kinetics, antibody captured on Protein A, BTN3A1-His as analyte, 1:1 model. On the procedure:
Purified antibodies were diluted to a concentration of 2 μg/mL in 2% BSA/PBS. At the start of each cycle, each antibody was captured on the Protein A at a density (RL) of 146.5 RU (theoretical value to obtain an RMax of ˜50 RU). Following capture, the surface was allowed to stabilize before injection of the BTN3A1 antigen (Sino Biological cat. no. 15973-H08H). BTN3A1 was titrated in 0.1% BSA/HBS-P+(running buffer) in a two-fold dilution range from 12 to 0.375 nM. The association phase was monitored for 360 seconds and the dissociation phase for 45 minutes (2700 seconds). Kinetic data was obtained using a flow rate of 40 μL/min to minimize any potential mass transfer effects. Regeneration of the Protein A surface was conducted using two injections of 10 mM glycine-HCL pH 1.5 at the end of each cycle. Two blanks (no BTN3A1) and a repeat of a single concentration of the analyte were performed for each tested antibody to check the stability of the surface and analyte over the kinetic cycles. The chimeric antibody was run twice. The signal from the reference channel Fc1 was subtracted from that of Fc2, Fc3 and Fc4 to correct for differences in non-specific binding to a reference surface. Additionally, blank runs were subtracted for each Fc to correct any antigen-independent signal variation, such as drift. […]

T1 sequence (O00481 30-254 limits assumed): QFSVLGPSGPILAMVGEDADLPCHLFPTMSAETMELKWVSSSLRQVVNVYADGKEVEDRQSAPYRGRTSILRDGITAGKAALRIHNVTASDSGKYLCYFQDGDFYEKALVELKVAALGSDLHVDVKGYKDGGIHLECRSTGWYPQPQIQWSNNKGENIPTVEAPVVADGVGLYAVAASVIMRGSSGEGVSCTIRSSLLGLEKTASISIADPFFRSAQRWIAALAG

B1: Chimeric 103.2 antibody (VH0/Vκ0), full-length IgG (antibody, V domains shown)
VH: QVQMQQSGAEVVRPGTSVKVSCKASGYAFTSYLIHWIKQRPGQGLEWIGVINPRSGDSHYNEKFKDRTTLTADQSSSTAYMQLSSLTSDDSAVYFCARSDYGAYWGQGTLVTVSS
VL: DIVLTQSPVTLSVTPGDSVSLSCRASQSISNNLHWYRQKSHESPRLLIKYASQSIFGIPSRFSGSGSGTEFTLSINSVETEDFGIYFCQQSNSWPHTFGTGTKLELK
With B1, the % CD107+ of Vγ9Vδ2 T cells, co-culture with Daudi cells, antibody at 10 µg/mL in experiment [1] worked out at 6.96%.

B2: Chimeric 103.2 Fab fragment (Fab, V domains shown)
VH: QVQMQQSGAEVVRPGTSVKVSCKASGYAFTSYLIHWIKQRPGQGLEWIGVINPRSGDSHYNEKFKDRTTLTADQSSSTAYMQLSSLTSDDSAVYFCARSDYGAYWGQGTLVTVSS
VL: DIVLTQSPVTLSVTPGDSVSLSCRASQSISNNLHWYRQKSHESPRLLIKYASQSIFGIPSRFSGSGSGTEFTLSINSVETEDFGIYFCQQSNSWPHTFGTGTKLELK
With B2, in experiment [1], the % CD107+ of Vγ9Vδ2 T cells, co-culture with Daudi cells, fragment at 10 µg/mL came out at 66.7%. In [2], this molecule had a Kd of 1.42 nM, a koff of 0.000782 s⁻¹ and a kon of 551000 M⁻¹ s⁻¹.

B3: Humanized 103.2 (hu103.2) full-length antibody: 103.2 VH4/Vκ4 IgG1 L247F L248E P350S dK (antibody, V domains shown)
VH: QVQMQQSGAEVKKPGASVKVSCKASGYAFTSYLIHWIKQRPGQGLEWIGVINPRSGDSHYNEKFKDRVTMTADQSISTAYMELSRLRSDDTAVYYCARSDYGAYWGQGTLVTVSS
VL: EIVLTQSPATLSVSPGERATLSCRASQSISNNLHWYQQKPGQAPRLLIKYASQSAFGIPARFSGSGSGTEFTLTISSLQSEDFAVYFCQQSNSWPHTFGQGTKLEIK
notes: also called hu103.2 (IgG)
In [1], B3 returned a % CD25+ of Vγ9Vδ2 T cells within PBMCs, 67 nM, 5 days of 7.9% and a % CTV dilution of Vγ9Vδ2 T cells within PBMCs, 67 nM, 5 days of 9.5%. In experiment [3], this molecule displayed a Kd of 1.44 nM, an off-rate constant (koff) of 0.00028 s⁻¹ and a kon of 194000 M⁻¹ s⁻¹. Further, the kon in experiment [4] amounted to 430000 M⁻¹ s⁻¹. Moreover, the “ka 2” value in experiment [5] was 9.28 M⁻¹ s⁻¹. This molecule came in with a koff in [6] of 0.000352 s⁻¹. Moreover, in experiment [7], the “kd 2” value stood at 17.6 s⁻¹.

B4: Humanized 103.2 (hu103.2) Fab fragment (Fab, V domains shown)
VH: QVQMQQSGAEVKKPGASVKVSCKASGYAFTSYLIHWIKQRPGQGLEWIGVINPRSGDSHYNEKFKDRVTMTADQSISTAYMELSRLRSDDTAVYYCARSDYGAYWGQGTLVTVSS
VL: EIVLTQSPATLSVSPGERATLSCRASQSISNNLHWYQQKPGQAPRLLIKYASQSAFGIPARFSGSGSGTEFTLTISSLQSEDFAVYFCQQSNSWPHTFGQGTKLEIK
In [1], B4 displayed a % CD25+ of Vγ9Vδ2 T cells within PBMCs, 67 nM, 5 days of 32.7%; a % CTV dilution of Vγ9Vδ2 T cells within PBMCs, 67 nM, 5 days of 45.3%; an EC50 (nM) in Vγ9Vδ2 T cell degranulation assay (CD107) against Daudi of 0.91 nM; an EC50 (nM) in Vγ9Vδ2 T cell degranulation assay (CD107) against SKOV-3 of 0.08 nM. In experiment [8], this molecule showed a Kd of 2.43 nM, a koff of 0.000419 s⁻¹ and a kon of 172000 M⁻¹ s⁻¹. Also, in experiment [9], binding was put at a Kd of 1.26 nM, the koff was 0.00138 s⁻¹ and the kon came to 1.1e+06 M⁻¹ s⁻¹.

B5: 103.2 humanized variant VH4/Vκ4 (IgG4 format of the humanization screen) (antibody, V domains shown)
VH: QVQMQQSGAEVKKPGASVKVSCKASGYAFTSYLIHWIKQRPGQGLEWIGVINPRSGDSHYNEKFKDRVTMTADQSISTAYMELSRLRSDDTAVYYCARSDYGAYWGQGTLVTVSS
VL: EIVLTQSPATLSVSPGERATLSCRASQSISNNLHWYQQKPGQAPRLLIKYASQSAFGIPARFSGSGSGTEFTLTISSLQSEDFAVYFCQQSNSWPHTFGQGTKLEIK
notes: It has the same variable regions as hu103.2, which is the later IgG1 Fc-silent construct
Take B5: the “IC50 relative to chimeric” value in experiment [10] was ≤ 2 fold of chimeric (VH0/Vκ0). Moreover, the “affinity (KD) relative to chimeric” value in experiment [11] was ≤ 2 fold of 103.2 chimeric (VH0/Vκ0).

Source of the values: patent US20220073619A1 (IMCHECK THERAPEUTICS, published 2022).
